# Laboratory results from patent publication US8697651B2, “Amyloid β fibrillogenesis-inhibiting peptide” (Kagoshima University, priority 2006, dated 2014).
# No end group written: not given here. *: point of attachment. Biotin = O=C1N[C@H]2[C@H](CS[C@H]2CCCCC(=O)*)N1
# What was measured:
# Aβ1-42 peptide = molecular target: T1, Aβ1-42 peptide (Homo sapiens, UniProt P05067); assay: Experiment of inhibition of amyloid β (Aβ1-42) fibrillogenesis, thioflavine T fluorescence; format: biochemical; settings: peptide 1.65, 16.5, 33 nM added to 40 μM Aβ1-42 in 20 mM phosphate buffer pH 7.0; 0, 6, 24 hours; thioflavine T fluorescence 482 nm (FIG. 8)
# T1 construct: the Aβ1-42 peptide diluted to 40 μM using 20 mM phosphate buffer
# Experimental: Examples of a method for examining whether or not the obtained peptide has an activity of inhibiting amyloid β fibrillogenesis include the thioflavine T (ThT) method (H. Levine, III, Protein Science […]: 404-410 (1993)).
# The synthesized peptide (TAT-B6-L1, B6-L1-TAT, TAT-B7-C15, or TAT-B7-S15) was added at varying concentrations (1.65 nM, 16.5 nM, and 33 nM) to the Aβ1-42 peptide diluted to 40 μM using 20 mM phosphate buffer, pH 7.0. At 0, 6, and 24 hours later, 10 μl of a sample was collected. After addition of 90 μl of 11 μM thioflavine T (Sigma)/phosphate buffer, fluorescence intensity at 482 nm generated by excitation light at 450 nm was measured using a multilabel plate counter Wallac 1420 ARVO sx (Perkin-Elmer; Wellesley, Mass.).
# Results of measuring an activity of inhibiting Aβ1-42 fibrillogenesis by fusion peptides of TAT and B6-L1, B7-C15, or B7-S15 are shown in FIG. 8. The experiment of inhibition of fibrillogenesis was conducted according to the procedures described in the experiment of inhibition of fibrillogenesis above.
# B6 scFv = assay: ELISA: binding of B6 scFv to plate-coated synthesized TAT fusion peptide; set-up: species or system human; settings: peptide coated 200 ng/well; B6 scFv at varying concentrations (FIG. 7)
# Excerpt: The B6-L1, B7-C15, and B7-S15 sequences having the TAT sequence fused at the amino terminus are referred to as TAT-B6-L1, TAT-B7-C15, and TAT-B7-S15, respectively. The B6-L1 sequence having the TAT sequence fused at the carboxyl terminus is referred to as B6-L1-TAT. The TAT sequence is a peptide sequence having the function of passing through the blood-brain barrier (P. Jarver and Ulo Langel, The use of cell-penetrating peptides as a tool for gene regulation, DDT, 9: 395-402, 2004). These peptides were biotinylated at their amino termini. Binding of the peptides was quantified using avidin labeled with an enzyme.
# (5) The fusion peptide of TAT and B6-L1 was recognized by B6 scFv (FIG. 7). An ELISA plate was coated with the synthesized peptide TAT-B6-L1 or B6-L1-TAT under conditions of 200 ng/well. After addition of B6 scFv at varying concentrations, its binding activity was studied. A control peptide used was an unrelated peptide (GSGGGSCGYWRSEWGLCG (SEQ ID NO: 34)). […] (6) Activity of Inhibiting Aβ1-42 Fibrillogenesis by Fusion Peptide of TAT and B6-L1, B7-C15, or B7-S15
# [1] = molecular target: T2, Aβ oligomer or Aβ fibers (Aβ1-42) (Homo sapiens, UniProt P05067); assay: Experiment of precipitation of Aβ conformers (Aβ oligomer and Aβ fibers) by biotinylated peptide with streptavidin-magnet beads, Western blot; format: binding; settings: Aβ1-42 40 μM, 1.5 hours after dissolution, peptide 1:1, supernatant vs pellet (FIG. 9)
# T2 construct: the Aβ1-42 peptide diluted to 40 μM using 20 mM phosphate buffer
# Experimental: Aβ1-42 was dissolved at a concentration of 40 μM in 20 mM phosphate buffer, pH 7.0. At 1.5 hours later, the solution was reacted at 37° C. for 1 hour by the addition of the TAT-B6-L1 or TAT-B7-C15 peptide adjusted to 40 μM at a ratio of 1:1 by liquid volume (final concentration: Aβ [20 μM]/synthesized peptide [20 μM]). After reaction, an aliquot thereof was sampled as a sample before immunoprecipitation (“Before precipitation”), and the remaining sample was reacted with M-280 streptavidin-magnet beads (Dynal Biotech, Oslo, Norway) adjusted to 20 μg/μl on ice for 1 hour at a ratio of 1:1 by liquid volume (final concentration: Aβ [10 μM]/synthesized peptide [10 μM]/beads [10 μg/μl]). After reaction, the beads were precipitated using a magnet to obtain “Supernatant”. To the precipitated beads, PBS was added in a liquid volume equal to the collected supernatant to obtain “Pellet”. Each obtained sample was electrophoresed and subjected to Western blot analysis using anti-Aβ antibodies.
# Aβ1-42 was dissolved at a concentration of 40 μM in 20 mM phosphate buffer, pH 7.0. At 1.5 hours later, the biotinylated TAT-B6-L1 or TAT-B7-C15 peptide was added thereto, and the conjugates were precipitated using streptavidin-magnet beads. Bands derived from Aβ oligomer, Aβ fibers, etc., could be confirmed before precipitation. Aβ oligomer or Aβ fibers were not confirmed in the supernatant from precipitation using the TAT-B6-L1 or TAT-B7-C15 peptide but could be confirmed in the pellet.
# T1 sequence (P05067 672-713 limits assumed): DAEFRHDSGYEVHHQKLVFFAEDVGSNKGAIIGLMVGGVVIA
# T2 sequence (P05067 672-713 limits assumed): as above
# Sequence of B6 scFv (as listed by the source): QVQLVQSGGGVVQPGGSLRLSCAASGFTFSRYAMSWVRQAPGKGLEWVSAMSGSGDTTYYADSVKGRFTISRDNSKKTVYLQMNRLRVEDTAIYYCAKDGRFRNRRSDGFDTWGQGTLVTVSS
# Sequence of B6 scFv (as listed by the source): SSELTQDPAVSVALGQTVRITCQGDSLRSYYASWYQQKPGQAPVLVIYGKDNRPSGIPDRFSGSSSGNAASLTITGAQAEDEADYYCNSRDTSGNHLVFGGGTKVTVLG
Substance,activity of inhibiting Aβ1-42 fibrillogenesis (Aβ1-42 peptide),binding of B6 scFv to the coated peptide (B6 scFv),binding/precipitation of Aβ oligomer or Aβ fibers by the peptide [1]
TAT-B7-S15: B7-S15 sequence having the TAT sequence fused at the amino terminus; SEQ ID NO: 27 (Biotin-YGRKKRRQRRRSYGTKPWMSG),demonstrated to have the activity of inhibiting fibrillogenesis,–,–
TAT-B6-L1: B6-L1 sequence having the TAT sequence fused at the amino terminus; SEQ ID NO: 24 (Biotin-YGRKKRRQRRRGMLDIFAPIRHV),demonstrated to have the activity of inhibiting fibrillogenesis,Binding reaction dependent on the amount of B6 scFv was confirmed,Aβ oligomer or Aβ fibers formed on 1.5 hours after dissolution of Aβ1-42 bind to the TAT-B6-L1 or TAT-B7-C15 peptide
TAT-B7-C15: B7-C15 sequence (glycine added to carboxyl terminus) having the TAT sequence fused at the amino terminus; SEQ ID NO: 26 (Biotin-YGRKKRRQRRRCYGTKPWMCG; cysteine pairing not given here),demonstrated to have the activity of inhibiting fibrillogenesis,–,Aβ oligomer or Aβ fibers formed on 1.5 hours after dissolution of Aβ1-42 bind to the TAT-B6-L1 or TAT-B7-C15 peptide
"GSGGGSCGYWRSEWGLCG [control peptide, reference compound]",exhibited no inhibiting activity,–,no confirmed precipitation reaction
B6-L1-TAT: B6-L1 sequence having the TAT sequence fused at the carboxyl terminus; SEQ ID NO: 25 (Biotin-GMLDIFAPIRHVYGRKKRRQRRR),demonstrated to have the activity of inhibiting fibrillogenesis,Binding reaction dependent on the amount of B6 scFv was confirmed,–
